Article PMC5372681, “Study of Different Variants of Mo Enzyme crARC and the Interaction with Its Partners crCytb5-R and crCytb5-1” (International Journal of Molecular Sciences, 2017)

Molecular target: T1, crARC, Chlamydomonas reinhardtii mARC (mitochondrial Amidoxime Reducing Component), wild type (Chlamydomonas reinhardtii)
T1 construct: crARC, Chlamydomonas reinhardtii mARC, GenPept XP_001694549; Carries the Mo Cofactor; The mutant cDNAs were cloned in pQE80 (N-terminal six histidines); also called wild type crARC; Mo enzyme crARC; source: E. coli TP1000 (mobA), purified (Ni-NTA, PD10 desalting)
Assay: SEC; two proteins incubated together for 10 min, then loaded; 15 pmol of each; Superdex 200 10/300 GL, 50 mM phosphate buffer pH 7.2, 0.15 M NaCl, 0.75 mL/min; peak fractions checked by SDS-PAGE
Conditions: both partners purified

B1: crCytb5-R, Chlamydomonas reinhardtii NADH cytochrome b5 reductase (enzyme)
chain: MEEAGSEVMRSVITLLSYWQVGAGLLVVLVLIQALVFLRKKTKKPFLDPSEFQPVPLVEKTLITHNTVRLRFALPDPEQRVGLPIGQHISFKAQGEDGKDVIRPYTPVSDDDQLGAVDFVIKLYPTGKMSQVIAKMQLGDTMLMKGPKGRFTYTPNMVKHFGMLAGGTGITPMFQVLNAILKNPRDTTSVTLLYGNLTEEDILLRKELDELVAMHGNRLTVYHVLNTPPVDKEWSGGSGFISSELIRTKFPAPSSDIMTLRCGPSPMMVAMEKALTDLGYAEDKQFQF
stoichiometry N: 1 crCytb5-R per crARC
